Among the data in publication PMC2948610 are lag time of fibril formation and time to maximum ThT fluorescence (fibril formation) values, retold here.

What all share (experiment): thioflavin T fluorescence
In test [1] the target is MSP2_(1–25), recombinant 25-residue peptide corresponding to the entire conserved N-terminal domain of mature MSP2 (Plasmodium falciparum).
The target in test [2] is [F11A,I12A]MSP2_(1–25) (Plasmodium falciparum).
Test [3] concerns the target [Y7A,Y16A]MSP2_(1–25) (Plasmodium falciparum).

In the case of “MSP2_(1–25), recombinant 25-residue peptide corresponding to the entire conserved N-terminal domain of mature MSP2”, in test [1], the lag time of fibril formation came to 1 h and the time to maximum ThT fluorescence (fibril formation) is 2 h.

In test [2], [F11A,I12A]MSP2_(1–25) (peptide) returned a lag time of fibril formation of 3.5 h and a time to maximum ThT fluorescence (fibril formation) of 9 h.

For the substance [Y7A,Y16A]MSP2_(1–25) (peptide), in test [3], the lag time of fibril formation is 1 h and the time to maximum ThT fluorescence (fibril formation) came out at 2 h.
